According to the nanobody polyreactivity screen of Harvey et al. (2022):

Experiment: yeast display, Sf9 membrane polyspecificity reagent, FACS + sequencing; frameworks hold sequencing errors
Outline: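 A nanobody's polyreactivity label depends on the gate it was sorted from. Yeast display cells were stained with 10% biotinylated, detergent-solubilized Sf9 membrane reagent for 1 hour at 4 °C, enriched on streptavidin microbeads and sorted by FACS. The low and high (top ~1%) gates were set on anti-HA fluorescence for expression and streptavidin fluorescence for reagent binding.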

Sequence | polyreactivity (PSR sort gate)
QDQLVESGGGLVQAGGSLRLSCAASGSIFQYYAMGWYRQAPGKERELVAAISYSGDGTFYADSVKGRFTISRDNAKNSVYLQMNSLKPVDTAVYYCAASSTGYGGSTYYYWGQGTQVTVSS | low polyreactivity
QDQLVESGGGLVQAGGSLRLSCAASGSIFRYVMGWYRQAPGNERELVAAISIRGGSTYYADSVKGRFTISRDNAKNTVFFQMHSLKPEDTAVYYCAADRYRLGVKYDYWGQGTQVTVSS | high polyreactivity
QDQLVESGGGLVQAGGSLRLSCAASGSIFVQYAMGWYRQAPGKERELVATISSSGGSTYYADSVKGRFTISRDNAKNTVYLQMNCLKPEDTAVYYCAADWTLDPSYGYYADDYWGQGTQVTVSS | low polyreactivity
QDQLVESGGGLVQAGGSLRLSCAASGSIFWLNAMGWYRQAPGKERELVAAITTVDSTYYADSVKGRFTISRDNAKNTVYLQMNSLKPEDTAVYYCAASGRQSRYDYWGQGTQVTVSS | low polyreactivity
QDQLVESGGGLVQAGGSLRLSCAASGSIFWLYTMGWYRQAPGKERELVAAITGSGSSTYYADSVKGRFTISRDNAKNTVYLQMNSLKPEDTAVYYCAAYWSSARRRYDYWGQGTQVTVSS | high polyreactivity
QDQLVESGGGLVQAGGSLRLSCAASGSIFYPYAMGWYRQATGKEREFVAGITTRGGSTYYADSVKGRFTISRDNAKNTVYLQMNSLKPVDTAVYYCNAGYYLTLDYWGQGTQVTVSS | high polyreactivity
QDQLVESGGGLVQAGGSLRLSCAASGSIFYRYAMGWYRQARGKVREFVAGITYSSGTTYYADSVKGRFTISRDNAKNTVYLQMNSLKPEETAVYYCAAELRSSYYRRAMDYCGQGTQVTVSS | high polyreactivity
QDQLVESGGGLVQAGGSLRLSCAASGSTFGYYAMGWYRQAPGKERELVAAITWNGGSTYADSVKGRFTISRDNAKNTVYLQMNSLKPEDTAVYYCAALVHRRVQYDYWGQGTQVTVSS | high polyreactivity
QDQLVESGGGLVQAGGSLRLSCAASGSTFHLYAMGWYRQAPGKERELVAAITRRGSDTYYADSVKGRFTISRDNAKNTVYLQMNSLKPEDTAVYYCAARDRHPVWGQGTQVTVSS | low polyreactivity
QDQLVESGGGLVQAGGSLRLSCAASGSTFPAYAMGWYRQAPGKERELVAAISVRRGRTYYADSVKGRFTSSRDNAKNTVYLQMNSLKPDDTAVYYCAAYLRPGGNYYWGQGTQVTVSS | high polyreactivity
QDQLVESGGGLVQAGGSLRLSCAASGSTFPDYAAMGWYRPAPGTERELVAAISKRGGSTYYADSVKGRFTISRDNAKNTVYYQMNSLKPEDTAVYSCNVEYYILTAGRYARAYDYGGQGTQVTVSS | high polyreactivity
QDQLVESGGGLVQAGGSLRLSCAASGSTFPRYAMGWSRQAPGKERELVAAISSSGRTYYADSVKGRFTISRDNEKNTVYLQMNSLKPEDTAVYYCNAYPVFRSYDYWGQGTQVTVSS | high polyreactivity
QDQLVESGGGLVQAGGSLRLSCAASGSTFQTYAMGWYRQAPGKEREVVAAISFNGGSTYYADSVKGRFTISRDNAKNTVYLQMNSLKPEDTAVYSCAVEYTWASALYDGRHDYWGQGTQVTVSS | high polyreactivity
QDQLVESGGGLVQAGGSLRLSCAASGSTFRRYDMGWYRQAPGKERELVAAISHRTGRTSYADSVKGRFTISRDNAKNTVYLQMNSLKTEDTAVYYCAADHTYYRQGYDYWGQGTQVTVSS | high polyreactivity
QDQLVESGGGLVQAGGSLRLSCAASGSTFSWYAMGWYRQAPGKERELVAAINNRSGSTSYADSVKGRFTISRDNAKNTVYLQMNSLKPEDTAVYYCAAEGTDGLYDWEYDYWGQGTQVTVSS | high polyreactivity
QDQLVESGGGLVQAGGSLRLSCAASGSTFSYNAMGWYRQAPGKERELVAAIRWSGGSTYADSVKGRFTISRDNAKNTVYLQMNSLNPEDTAVYYCAARNFGYPELRYYYWGQGTQVTVSS | high polyreactivity
QDQLVESGGGLVQAGGSLRLSCAASGSTFTDYDMGWYRQAPGKERELVAAITSGGSTNYADSVKGRFTISRDNAKNTVYLQMNSLKPEDTAVYYCAAELRYYLYDVVYIVTYDYWGQGTQVTVSS | low polyreactivity
QDQLVESGGGLVQAGGSLRLSCAASGSTFTKYAMGWYRQAPGKERELVAAIISYRVGSTYYADSVKGRFTISRDNAKINVYLVMKSLIPEDTAAFYCAAVWKPPGFSTMYYWGQGTEVTVSS | high polyreactivity
QDQLVESGGGLVQAGGSLRLSCAASGSTFVDNAIGWYRQAPGKERELVAAISRGGSTHYADSVKGRFTISRDNAKNTVYLQMNSLKPEDTAVYYCAAVIDSREEYWGQGTQVTVSS | high polyreactivity
QDQLVESGGGLVQAGGSLRLSCAASGSTFVGNAMGWYRQAPGKERELVAAISRTGGSTYYADSVKGRFTISRDNAKNTVYLQMNSLKPEDTAVYYCAARRYDIRYYYVTYRPPKMYYWGQGTQVTVSS | high polyreactivity
QDQLVESGGGLVQAGGSLRLSCAASGSTFYTYAMGWYRQEPGKERELVAAISYRGGSSYYAVSVKGRFTISRDNAKYTVYLQMNSLKPEDTAVYYCAAKVSRAGDFWGQGTQVTVSS | low polyreactivity

Sequence | polyreactivity (PSR sort gate)
QDQLVESGGGLVQAGGSLRLSCAASGSTFYWYTMGWYRQAPGKESEMVATITSVGRTNYADSVKGRFTISRDNAKNTVYLQMNSLKPEDTAVYYCAASKARWARGGSKYYYWGQGTQVTVSS | high polyreactivity
QDQLVESGGGLVQAGGSLRLSCAASGSTIDDYARGWYRQAPGKERELVAAITWTSTDTYADSVKGRFTISRDNAKNTVYLQMNCLKPEDTAVYYCATDFIWDTAVTGGPNDWEYDYWGQGTQVTVSS | low polyreactivity
QDQLVESGGGLVQAGGSLRLSCAASGSTIRVKAMGWYRLAPGKERELVAGISKSGTSTYYADSVKGRFTISRDNAKNTVYLQMNSLKPEDTAAYYCATHLGRRTSGSRFGYWGQGTQVTVSS | high polyreactivity
QDQLVESGGGLVQAGGSLRLSCAASGSTLARYGMGWYRQAPGKERELVAAISYSGGRTYYADSVKGRFTISRDNAKNTVYLQMNSLKPEDTAVYYCAARRVYVPRGPIEFYYWGQGTQVTVSS | high polyreactivity
QDQLVESGGGLVQAGGSLRLSCAASGSTLFIYARGWYRQAPGKEREFVAGISYSGGSTYYADSVKGRFTISRDNAKNTVYLQMNSLKPEDTAVYYCAAATVYLSWYYWGQGTQVTVSS | high polyreactivity
QDQLVESGGGLVQAGGSLRLSCAASGSTLYAYAMGWYRQAPGKERELVAAISFSTTSTYYADSVKGRFTISRDYEKNTVYLQMNSLKPEDTAVYYCAAEYWYYWEYEYWGLGTQVTVSS | high polyreactivity
QDQLVESGGGLVQAGGSLRLSCAASGYIFLRNAMGWYRQAPGKERELVATISRTGRTNYADSVKGRFTISRDNAKNTVFLHMNSLKPEDTAVYYCAAASVFGRIRLWYDYWGQGTQVTVSS | high polyreactivity
QDQLVESGGGLVQAGGSLRLSCAASGYTFRYAMGWNIQAPGKERELVAGITSSGGSTYYADSVKGRFTISRDNAKNTVYLQMNSLKPEDTAVYYCNADFFVWLYPHYLIFDYWGQGTQVTVSS | low polyreactivity
QDQLVESGGGLVQAGGSLRLSCAASVSTFYVYAMGWYRQAPGKERELVAAITRGGSTYYADSVKGRFTISRDNAKNTVYLQMNSLKPEDTAGYYCAADYGSRWGYDYCGQGTQVTVSS | low polyreactivity
QDQLVESGGGLVQAGGSLRLSCAAYGIIFWDNAMGWYRQAPGKERELVASINYSGGSTYYADSVKGRFTISRDNAKNTVYLQMYSLKPEDTAVYYCAARTVTLDDWDYAYDYWGQGTQVTVSS | low polyreactivity
QDQLVESGGGLVQAGGSLRLSCAPSGFIFDDNAMGWYRQAPGKERELVAAITSGGGSTYYADSVKGRFTISRDNAKNTFYLQMNSLKPEDTAVYYCNKVYGWYSFKWGPTASDYWGQGTQVTVSS | low polyreactivity
QDQLVESGGGLVQAGGSLRLSCAPSGSIFYRNAMGWYRQAPGKERELVAAIRYSGDNTYYADSVKGRFTISRDNSKNTVYLQMNSLKPEDTAVYYCAADFPDYEYWGQGTQVTVSS | high polyreactivity
QDQLVESGGGLVQAGGSLRLSCASSGFTFNGYAMGWYRQAPGKERELVAAINISGGSTYYADSVKGRFTISRDNAKNTVYLQMNSLNPEDTAVYYCAARLWGKRYSYRYGYWGQGTQVTVSS | high polyreactivity
QDQLVESGGGLVQAGGSLSLSCAASGRTFYWYVMGWYRQAPGKERELVAAITQTGSSSYYADSVKGRFTISRDNAKNTVYLQMNSLKPEDTAVYYCADRLSRNHYEVDYWGQGTQVTVSS | low polyreactivity
QDQLVESGGGLVQAGGSLSLSCAASGSIFGKYTMGWYRQAPGKERELVAGITYRAGSTYYADSVKGRFTISRDNAKITVYLQMNSLKPEDTAVYYCAARFYFRWYYYGSYANYWGQGTQVTVSS | high polyreactivity
QDQLVESGGGLVQAGGSRRLSCAASGSIFIYAMGWYRQAPGNERELVATIDSGGSTNYADSVKGRFTISRDNAKNTFYLQMNSLKPEDTAVYYFAARPYTTYHYVDDYWGQGTQVTVSS | high polyreactivity
QDQLVESGGGLVQAGGTLRLSCDASGSTFFRNAMGWYRQPPGKEREMVADISASGGSTYYADSVKGRFTISRDNAKNTVYLQMNSLKPEDNADYYCNALYIYFYNYLTMDYWGQGSQVTVSS | low polyreactivity
QDQLVESGGGLVQAGVSLRLSCAASGRTIRHNPMGWYIQAPGKERELVATINRGGNTYYADSVKGRFTISRDNAKNTVYLQMISLKPEDTAVYYCAARRSFLFDDGNYWGQVTQVTVSS | low polyreactivity
QDQLVESGGGLVQAGVSLRLSCPASGNIFNGKAMGWYRQAPGKERELVAAISSGGGSTYYADSVKGRFTISRDNAMNTVYLQMNSLKPEDTAVYYCAASRVRYSYGYPYYYWGQGTQVTVSS | high polyreactivity
QDQLVESGGGLVQARGSLRLSCAASGYIFPFYAMGWYRQAPGKESELVASISSSSGRTNYADSVKGRFTISRDNAMNTVYLQMNSLKPEDTAVYYCSAAYLRYVSTQYHYDYWGQGTQVTVSS | low polyreactivity
